In the supplement of paper PMC10567573:

B1: ZNF263 (parent)
chain: LLRHQRIHTGERPYKCPECGKSFS
B2: CDS2 (parent)
chain: LIVVTQSHLVIHNLFEGMIWFIVP

Variants of: B1
Assay: protein stability index of a GFP-peptide fusion (GPS, HEK-293T) (PSI 1-6); higher = more stable
Details: c terminus: a fixed tail appended
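Also: lentivirally expressed fusions sorted by FACS into six bins by GFP to DsRed ratio, PSI derived from sequencing read proportions per bin multiplied by bin number.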

Protein stability index: each site, then its substitutions
K15: T 1.97, I 2.46, G 2.62, D 2.74, V 2.4, C 2.16, F 2.41, W 2.03, Q 2.46, H 2.29, S 2.48, A 2.52, L 1.98, M 2.15, P 1.74, E 2.66, Y 2.17, N 2.19, R 2
Q5: V 1.74, L 2.4, I 2.13, P 2.3, D 2.23, S 2.36, W 1.66, E 3.06, R 2.09, T 2.82, N 2.29, K 2.28, G 1.87, C 1.95, M 2.21, H 2.74, A 2.63
H4: S 2.23, K 2.2, P 2.25, T 1.69, F 1.92, E 2.81, G 2.99, R 3.38, Y 2.12, Q 2.56, D 2.58, C 3.89, W 1.77, A 2.18, M 1.73, V 3.58, L 2.15, N 2.24, I 1.96
P13: F 2.01, T 2.56, C 2.16, I 1.87, Y 1.89, V 2.54, N 2.69, L 2.73, H 1.64, D 2.11, M 2.5, R 1.72, G 2.36, W 2.83, K 1.78, A 3.1, S 2.02, E 2.48, Q 3.02
T9: D 2.73, N 2.07, F 2.06, G 3.33, Y 2.56, P 2.45, E 2.62, S 1.88, K 2.41, A 1.85, L 3.29, V 2.34, W 1.49, M 2.21, Q 3.1, R 2.14, C 2.19, I 2.53, H 2.21
G10: H 2.61, A 2.36, T 3.22, W 1.69, V 2.43, F 2.07, Y 2.17, N 3.12, E 3.06, D 2.56, R 2.46, M 2.23, Q 2.86, S 2.64, I 2.29, C 2.49, P 2.15, L 2.3, K 2.24
L2: P 2.63, C 4.89, V 4.05, M 3.08, N 3.27, D 3.39, Q 2.57, S 3.11, F 3.31, I 1.78, E 3.61, H 3.11, G 2.76, Y 1.82, A 1.96, T 2.71, W 1.86
H8: N 2.88, M 2.24, Y 1.59, I 1.8, F 2.04, Q 2.52, D 2.53, W 1.73, L 1.85, G 2.39, P 3.3, A 1.86, R 1.37, C 2.03, E 2.52, V 2.48, S 2.61, K 2.44, T 2
Y14: N 2.39, T 2.25, C 3.63, H 2.13, P 2.09, E 2.85, G 2.34, M 2.42, A 2.74, L 2.48, Q 2.11, F 2.64, W 2.35, R 1.94, I 2.23, S 1.95, D 2.24, V 2.38, K 1.59
R3: V 2.3, T 3.27, N 2.28, Q 2.34, Y 1.62, A 3.21, K 2.48, C 2.98, D 3.77, E 2.9, M 2.04, W 2.3, I 2.25, G 2.68, F 1.58, S 2.81, L 1.63, H 2.56, P 2.76
E11: K 2.04, G 2.63, S 2.34, D 2.34, M 1.99, Q 2.51, L 1.99, N 2.32, P 2.39, A 2.26, I 1.78, V 2.56, R 3.3, F 1.56, H 2.7, T 2.51, C 1.96, Y 1.88, W 2.01
C16: K 3.44, G 3.9, T 3.4, L 2.38, W 3.15, D 3.46, Y 2.12, N 2.76, A 3.17, S 2.73, I 2.77, E 3.33, H 3.04, F 2.48, P 3.06, R 3.74, V 2.16, M 2.36, Q 3.2
R6: S 2.51, L 2.41, H 3.73, K 2.81, F 1.41, P 2.56, C 5, V 2.78, W 2.06, G 2.08, E 2.74, Q 2.53, M 2.08, A 2.68, D 2.78, N 2.59, I 2.22, T 2.85, Y 1.91
I7: R 2.55, Y 1.77, G 2.48, F 2.79, H 2.68, T 2.41, C 2.48, P 2.56, E 2.64, K 2.14, S 1.91, L 1.94, D 3.06, N 2.1, V 2.27, M 2.66, A 2.39, Q 2.31, W 2.17
L1: H 2.44, Q 4.46, V 3.03, W 2.95, I 2.06, E 2.29, G 2.73, F 3.5, C 4.12, M 1.65, N 2.85, P 2.83, S 2.26, R 4.23, Y 3.07, T 2.9, D 2.62, K 3.58, A 2.82
R12: Q 2.67, H 2.67, K 2.43, W 1.7, I 2.64, S 2.11, E 2.71, M 2.08, L 2.69, V 2.91, Y 2.6, G 3.4, T 2.45, N 1.59, C 2.48, P 2.52, F 2.65, A 2.11, D 1.93
P17: A 1.83

Variants of: B2
Assay: as above
Details: c terminus: a fixed tail appended

Protein stability index, by site and new letter:
I22: T 3.85, W 3.42, Y 2.27, P 2.56, Q 1.69, S 3.28, R 2.85
P24: H 3.13, N 2.81, C 3.63, G 3.29, M 2.59, R 3.1, D 2.06, W 3.81, V 2.65, F 2.52, S 1.99, L 2.19, Y 2.3
V23: C 3.47, N 2.51, F 4.17, I 2.9, L 3.54, Q 1.52, S 1.85, T 3.31, Y 3.02, W 1.67, D 3.03, E 4.22, A 2.36
